Usually Kd stands for the equilibrium constant for the complex coming apart. The koff is the first-order rate constant of dissociation. A word on the kon: it is the second-order rate constant of association. A low value points to slower complex formation.

This assay deals with human serum albumin (human) (UniProt P02768). Nature of the assay: SPR. Background: Surface plasmon resonance follows binding to a sensor surface in real time, without labels.

With “albumin-binding domain (ABD) derived from streptococcal protein G (domain or fragment)”, the dissociation constant Kd turned out to be 8.1 nM, the dissociation rate constant (koff) turned out to be 0.00044 s⁻¹ and the on-rate constant (kon) stood at 54000 M⁻¹ s⁻¹.

These data come from publication PMC4121139.
